How the values were obtained:
Test in all cases: SPR; KD relative to WT C2;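 also: biacore SPR at 37 °C, anti-C2 mAbs captured on an anti-human IgG chip, alanine or serine C2 surface mutants tested, KD from 1:1 fit compared with wild-type C2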
human C2 D454A = target: T1, human C2 D454A (human, UniProt P06681 21-752)
T1 sequence: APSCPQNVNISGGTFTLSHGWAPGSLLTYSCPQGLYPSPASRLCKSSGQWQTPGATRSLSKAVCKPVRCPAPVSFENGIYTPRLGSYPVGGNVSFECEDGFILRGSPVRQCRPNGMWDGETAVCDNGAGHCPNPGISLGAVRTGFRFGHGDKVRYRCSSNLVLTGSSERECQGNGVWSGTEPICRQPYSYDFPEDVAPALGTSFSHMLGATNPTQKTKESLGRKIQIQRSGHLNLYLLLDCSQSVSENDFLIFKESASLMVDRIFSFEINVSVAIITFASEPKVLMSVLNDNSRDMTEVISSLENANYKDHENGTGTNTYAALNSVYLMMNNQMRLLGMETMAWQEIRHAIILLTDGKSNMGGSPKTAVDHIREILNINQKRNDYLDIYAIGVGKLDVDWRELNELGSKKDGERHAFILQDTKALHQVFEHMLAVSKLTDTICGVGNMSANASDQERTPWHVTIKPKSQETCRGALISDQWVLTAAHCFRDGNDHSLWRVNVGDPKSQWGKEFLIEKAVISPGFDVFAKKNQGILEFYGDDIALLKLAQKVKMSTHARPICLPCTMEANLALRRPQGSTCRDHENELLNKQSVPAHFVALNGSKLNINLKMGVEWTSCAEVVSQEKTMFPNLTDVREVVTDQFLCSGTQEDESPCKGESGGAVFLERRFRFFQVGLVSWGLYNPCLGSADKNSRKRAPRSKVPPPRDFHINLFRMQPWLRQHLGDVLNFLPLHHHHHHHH

human C2 K244A = target: T2, human C2 K244A (human, UniProt P06681 21-752)
T2 sequence: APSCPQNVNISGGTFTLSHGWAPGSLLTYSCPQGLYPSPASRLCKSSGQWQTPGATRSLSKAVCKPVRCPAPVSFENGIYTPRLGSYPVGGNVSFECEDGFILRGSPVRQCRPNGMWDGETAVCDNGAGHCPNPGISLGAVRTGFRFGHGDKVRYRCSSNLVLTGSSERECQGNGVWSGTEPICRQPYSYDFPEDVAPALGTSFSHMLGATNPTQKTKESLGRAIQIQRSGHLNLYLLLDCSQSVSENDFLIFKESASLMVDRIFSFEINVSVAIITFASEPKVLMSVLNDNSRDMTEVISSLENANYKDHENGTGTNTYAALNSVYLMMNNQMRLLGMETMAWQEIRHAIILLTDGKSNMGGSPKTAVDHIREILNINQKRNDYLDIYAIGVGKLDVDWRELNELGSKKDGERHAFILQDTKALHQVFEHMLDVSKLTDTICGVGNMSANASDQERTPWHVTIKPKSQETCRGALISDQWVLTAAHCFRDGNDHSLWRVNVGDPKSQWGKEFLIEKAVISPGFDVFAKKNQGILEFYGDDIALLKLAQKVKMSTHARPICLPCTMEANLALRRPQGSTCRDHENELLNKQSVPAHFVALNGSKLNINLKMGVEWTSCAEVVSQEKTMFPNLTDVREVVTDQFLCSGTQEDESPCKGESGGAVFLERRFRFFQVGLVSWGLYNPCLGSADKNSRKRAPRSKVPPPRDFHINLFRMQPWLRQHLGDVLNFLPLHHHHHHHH

human C2 E686A = target: T3, human C2 E686A (human, UniProt P06681 21-752)
T3 sequence: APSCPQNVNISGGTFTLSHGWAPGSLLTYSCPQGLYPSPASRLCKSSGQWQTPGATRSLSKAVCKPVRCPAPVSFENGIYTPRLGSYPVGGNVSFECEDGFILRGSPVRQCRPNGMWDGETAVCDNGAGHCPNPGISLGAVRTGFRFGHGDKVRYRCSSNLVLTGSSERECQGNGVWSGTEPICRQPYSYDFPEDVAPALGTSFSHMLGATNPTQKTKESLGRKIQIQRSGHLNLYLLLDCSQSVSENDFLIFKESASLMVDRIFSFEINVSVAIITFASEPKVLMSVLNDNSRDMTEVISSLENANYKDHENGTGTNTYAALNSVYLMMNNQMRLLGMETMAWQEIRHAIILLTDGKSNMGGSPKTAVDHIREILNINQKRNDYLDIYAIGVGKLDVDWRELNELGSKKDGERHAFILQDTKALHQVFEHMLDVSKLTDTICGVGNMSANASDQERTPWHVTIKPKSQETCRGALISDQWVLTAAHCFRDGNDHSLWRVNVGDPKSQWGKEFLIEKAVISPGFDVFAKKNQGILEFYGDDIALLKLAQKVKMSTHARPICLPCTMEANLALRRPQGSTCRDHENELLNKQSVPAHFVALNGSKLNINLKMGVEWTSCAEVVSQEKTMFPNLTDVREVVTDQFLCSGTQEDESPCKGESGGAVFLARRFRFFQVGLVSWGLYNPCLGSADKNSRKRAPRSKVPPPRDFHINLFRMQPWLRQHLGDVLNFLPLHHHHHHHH

human C2 S469A = target: T4, human C2 S469A (human, UniProt P06681 21-752)
T4 sequence: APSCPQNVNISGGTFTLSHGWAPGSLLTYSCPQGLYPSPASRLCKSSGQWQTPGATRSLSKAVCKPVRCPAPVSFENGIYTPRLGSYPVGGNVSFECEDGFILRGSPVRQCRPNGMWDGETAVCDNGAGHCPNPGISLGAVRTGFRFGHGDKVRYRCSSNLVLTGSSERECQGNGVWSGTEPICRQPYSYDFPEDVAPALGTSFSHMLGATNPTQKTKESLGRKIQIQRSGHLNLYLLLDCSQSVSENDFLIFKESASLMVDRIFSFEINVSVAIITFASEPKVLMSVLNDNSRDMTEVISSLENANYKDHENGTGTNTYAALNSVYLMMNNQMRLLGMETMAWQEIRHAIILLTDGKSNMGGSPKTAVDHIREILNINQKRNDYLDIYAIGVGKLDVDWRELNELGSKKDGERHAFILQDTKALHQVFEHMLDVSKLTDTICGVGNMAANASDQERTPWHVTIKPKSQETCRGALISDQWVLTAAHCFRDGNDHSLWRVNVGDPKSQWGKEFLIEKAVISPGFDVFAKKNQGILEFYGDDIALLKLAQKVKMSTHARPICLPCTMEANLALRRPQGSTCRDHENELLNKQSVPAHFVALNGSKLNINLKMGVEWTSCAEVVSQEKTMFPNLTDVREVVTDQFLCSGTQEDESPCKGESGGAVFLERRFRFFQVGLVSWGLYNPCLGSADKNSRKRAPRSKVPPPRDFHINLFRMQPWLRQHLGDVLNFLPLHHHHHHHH

Fold diff (human C2 D454A): 4 fold
Fold diff (human C2 K244A): 3 fold
Fold diff (human C2 E686A): 4 fold
Fold diff (human C2 S469A): 3 fold
B1: RF16-214 (antibody, V domains shown)
VH: EVQLLESGGGLVQPGGSLRLSCAASGFTFSWYQMMWVRQAPGKGLEWVSRIYPSGGGTAYADSVKGRFTISRDNSKNTLYLQMNSLRAEDTAVYYCARDAGYGDNWGQGTLVTVSS
VL: QSALTQPPSVSVSPGQTASITCSGDKLGEKYASWYQQKAGQSPVMVIYQDRKRPSGIPERFSGSNSGNTATLTISGTQAMDEADYYCQAWDTRAVVFGGGTKLTVLG

From patent US20220332804A1 (CSL INNOVATION, published 2022)
